# Test results: article PMC5581337
# Target: HA-NRX2αS1(+) S2(+) S3(+) S4(−) (extracellularly HA-tagged neurexin2α without the insert at splice site 4) (mouse) (UniProt E9Q7X7)
# Assay: cell surface binding assay; Scatchard plot analysis of IgSF21-Fc bound to COS-7 cells expressing HA-NRX2αS4(-), n = 30 cells
substance,measurement,value
IgSF21-Fc (ectodomain of rat IgSF21 fused to the human immunoglobulin Fc region) (from UniProt M0RAS4 25-448) (Fc fusion),Kd,21 nM
